Source: patent US20220169688A1 (Dana-Farber, published 2022)
Blank lines part the entries; values can stand above or below the binder they belong to. Bridge positions count the residues as written; N and C are the ends. Square brackets hold non-standard residues; d marks the D form. Primed or numbered codes have the meaning given here. Ends that are not written are not given here. R8 = C=CCCCCCC[C@@](C)(N)C(=O)O; S5 = C=CCCC[C@](C)(N)C(=O)O; FITC′ = not defined here; Nle = CCCC[C@H](N)C(=O)O

Tests used:
[1] = biological target: T1, recombinant human E1 activating enzyme UBA1 (human, UniProt P22314 1-1058, limits assumed); assay: fluorescence polarization, without and with ubiquitin and ATP
T1 construct: also called UBE1
T1 sequence: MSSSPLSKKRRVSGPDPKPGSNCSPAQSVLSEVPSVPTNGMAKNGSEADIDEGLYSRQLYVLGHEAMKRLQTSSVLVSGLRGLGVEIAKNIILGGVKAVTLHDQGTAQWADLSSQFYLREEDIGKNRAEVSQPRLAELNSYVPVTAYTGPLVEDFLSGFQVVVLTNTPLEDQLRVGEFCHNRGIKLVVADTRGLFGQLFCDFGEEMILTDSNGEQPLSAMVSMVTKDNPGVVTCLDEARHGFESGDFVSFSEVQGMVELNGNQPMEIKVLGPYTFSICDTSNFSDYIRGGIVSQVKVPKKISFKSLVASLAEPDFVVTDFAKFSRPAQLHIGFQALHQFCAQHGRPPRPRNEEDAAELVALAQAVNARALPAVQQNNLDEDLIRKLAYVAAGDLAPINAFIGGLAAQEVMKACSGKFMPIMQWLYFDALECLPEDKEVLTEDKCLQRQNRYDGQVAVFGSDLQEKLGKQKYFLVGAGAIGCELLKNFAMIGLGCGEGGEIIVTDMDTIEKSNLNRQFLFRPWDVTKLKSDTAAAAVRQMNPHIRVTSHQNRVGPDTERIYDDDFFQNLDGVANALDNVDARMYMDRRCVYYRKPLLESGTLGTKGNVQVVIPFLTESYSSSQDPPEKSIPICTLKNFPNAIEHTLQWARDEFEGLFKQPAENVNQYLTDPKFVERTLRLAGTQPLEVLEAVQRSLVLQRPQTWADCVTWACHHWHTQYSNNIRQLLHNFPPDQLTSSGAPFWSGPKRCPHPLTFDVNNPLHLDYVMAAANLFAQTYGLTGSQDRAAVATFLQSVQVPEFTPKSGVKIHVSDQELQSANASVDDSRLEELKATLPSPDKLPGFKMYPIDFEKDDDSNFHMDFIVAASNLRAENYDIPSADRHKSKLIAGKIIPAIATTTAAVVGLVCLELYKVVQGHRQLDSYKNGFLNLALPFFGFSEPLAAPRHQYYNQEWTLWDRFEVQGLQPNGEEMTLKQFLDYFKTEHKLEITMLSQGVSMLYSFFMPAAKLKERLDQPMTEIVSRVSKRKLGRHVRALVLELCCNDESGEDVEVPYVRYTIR
Description: In vitro Binding Assays: To assess the binding and affinity of ligands to acceptor proteins, a fluorescence polarization assay (FPA) can be used, for example. The FPA technique measures the molecular orientation and mobility using polarized light and fluorescent tracer.

[2] = biological target: T2, His-tagged UBA1 captured on Ni-NTA agarose beads (human, UniProt P22314 1-1058, limits assumed); assay: fluorescence microscopy of Ni-NTA agarose beads carrying His-UBA1; 10 µM FITC-labeled peptide
T2 construct: also called His-UBA1; His-UBE1; not shown: His tag
T2 sequence: T1 sequence
Protocol: Fluorescence Microscopy: His-tagged UBA1 (25 μg) was incubated with Ni-NTA agarose beads (100 μl) (Invitrogen™ R90110) in PBS for 30 min. […] Beads were plated in 386-well plate format (10 μl/well) (Corning 384-well High Content Imaging Glass Bottom Microplate) and imaged with an Olympus wide-field epifluorescence microscope, a 63× LCPlanFL NA 0.7 objective, and a CoolSNAP DYNO camera.

[3] = biological target: T3, His-tagged p53 (UniProt P04637 1-393, limits assumed); assay: fluorescence microscopy of Ni-NTA agarose beads carrying His-p53, incubated with FITC-labeled peptide
T3 construct: Control protein captured on Ni-NTA agarose beads; also called His-p53; unrelated protein control; not shown: His tag
T3 sequence (P04637 whole entry): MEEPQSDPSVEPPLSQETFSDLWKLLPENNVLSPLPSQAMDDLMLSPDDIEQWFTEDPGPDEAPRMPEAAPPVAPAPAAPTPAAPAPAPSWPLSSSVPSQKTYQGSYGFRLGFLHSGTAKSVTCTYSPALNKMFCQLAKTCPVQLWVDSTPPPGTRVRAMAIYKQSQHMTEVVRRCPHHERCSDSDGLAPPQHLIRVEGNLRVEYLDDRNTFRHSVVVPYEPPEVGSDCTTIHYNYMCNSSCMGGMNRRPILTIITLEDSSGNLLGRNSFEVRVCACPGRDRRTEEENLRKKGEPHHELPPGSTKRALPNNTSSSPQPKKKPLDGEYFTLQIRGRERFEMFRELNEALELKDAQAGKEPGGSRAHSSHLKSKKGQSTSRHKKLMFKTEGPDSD

[4] = biological target: T4, native UBA1 in HeLa cell lysate (human, UniProt P22314 2-1058, limits assumed); assay: streptavidin-biotin pull-down from HeLa cell lysate, western blot
T4 construct: Endogenous protein in HeLa cell lysate or S100 fraction; also called UBE1
T4 sequence: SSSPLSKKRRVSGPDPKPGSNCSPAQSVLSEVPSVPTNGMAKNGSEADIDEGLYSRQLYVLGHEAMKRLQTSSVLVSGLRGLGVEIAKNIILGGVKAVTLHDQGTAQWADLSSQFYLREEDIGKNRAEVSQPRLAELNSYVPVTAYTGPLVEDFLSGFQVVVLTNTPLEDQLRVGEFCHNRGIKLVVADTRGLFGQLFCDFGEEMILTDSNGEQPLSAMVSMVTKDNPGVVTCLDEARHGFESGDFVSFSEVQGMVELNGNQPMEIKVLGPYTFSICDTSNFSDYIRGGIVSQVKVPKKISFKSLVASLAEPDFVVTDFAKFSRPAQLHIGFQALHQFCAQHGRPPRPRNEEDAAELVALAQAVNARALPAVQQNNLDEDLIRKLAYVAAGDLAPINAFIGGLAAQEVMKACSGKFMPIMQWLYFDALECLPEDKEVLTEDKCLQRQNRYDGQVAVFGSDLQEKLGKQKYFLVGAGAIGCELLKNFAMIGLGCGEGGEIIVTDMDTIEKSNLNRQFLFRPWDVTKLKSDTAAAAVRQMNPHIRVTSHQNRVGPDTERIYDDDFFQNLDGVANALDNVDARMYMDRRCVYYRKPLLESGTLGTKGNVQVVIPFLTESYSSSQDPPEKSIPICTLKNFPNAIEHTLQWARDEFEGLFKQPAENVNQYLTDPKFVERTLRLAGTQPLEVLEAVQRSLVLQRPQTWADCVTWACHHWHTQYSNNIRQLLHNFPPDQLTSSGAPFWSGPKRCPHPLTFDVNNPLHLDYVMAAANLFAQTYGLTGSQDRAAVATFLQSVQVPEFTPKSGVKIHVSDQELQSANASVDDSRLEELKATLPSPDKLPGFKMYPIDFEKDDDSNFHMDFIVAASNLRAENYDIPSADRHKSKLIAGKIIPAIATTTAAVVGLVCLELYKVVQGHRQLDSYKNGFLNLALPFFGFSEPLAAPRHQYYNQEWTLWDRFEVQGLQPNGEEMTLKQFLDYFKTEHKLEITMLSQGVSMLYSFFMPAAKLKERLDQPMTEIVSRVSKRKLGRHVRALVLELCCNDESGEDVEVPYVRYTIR
Protocol: (§1) 30 μL of pre-equilibrated streptavidin agarose beads were then added and incubated for an additional 1.5 hours at 4° C. The beads were pelleted by centrifugation and washed three times with NP-40 buffer (20 mM HEPES, pH 7.4, 50 mM NaCl, 5 mM DTT, 0.5% [v/v] NP-40) before eluting the protein sample from the beads by heating at 70° C. for 10 min in 3×SDS loading buffer. Samples were subjected to electrophoresis and silver staining (Pierce 24612). […] 30 μL of pre-equilibrated streptavidin agarose beads (ThermoFisher 20357) were then added and incubated for an additional 1.5 hours at 4° C. The beads were pelleted by centrifugation and washed three times with NP-40 buffer (20 mM HEPES, pH 7.4, 50 mM NaCl, 5 mM DTT, 0.5% [v/v] NP-40) before eluting the protein sample from the beads by heating at 70° C. for 10 min in 3×SDS loading buffer. Proteins were separated by SDS-PAGE gel electrophoresis and detected by western blot against UBE1 (Abcam ab34711). […] Conjugation of ubiquitin to E2 by E1 is monitored by conversion of free E2 (17 kDa) to E2˜ubiquitin conjugate (26 kDa). Quantitation of percent inhibition was calculated from densitometry of silver stain images.

[5] = biological target: T1, recombinant human E1 activating enzyme …; assay: streptavidin-biotin pull-down, silver-stained protein gel
Protocol: as §1

- binding result [1]: binds
- binding result [2]: binds
- binding result [3]: no binding (tested: 10 µM)
B1: FITC-SAH-UBE2A (FITC conjugated to SEQ ID NO: 132) (peptide)
peptide: [Nle]STP[R8]RRRL[Nle]R[S5]FKRLQ-{FITC′}
modifications: staple 5-12
notes: also called FITC-labeled SAH-UBE2A-11; FITC-labeled peptide

- binding result [4]: binds
- binding result [5]: binds
B2: C-terminally biotinylated SAH-UBE2A (peptide)
peptide: Ac-[Nle]STP[R8]RRRL[Nle]R[S5]FKRLQ-biotin
modifications: staple 5-12
notes: also called biotinylated peptide; not shown: C-terminal biotin handle
